Experimental findings from PMC4966845 (mAbs, 2016) are described below.

A word on the Kd: it is a measure of binding affinity in units of concentration. For orientation: koff means the rate constant with which the complex falls apart. Lower therefore signals slow dissociation. By kon is commonly meant a measure of how fast the partners come together. The low end stands for slower complex formation, the high end for faster complex formation. By IC50 is commonly meant the point on the concentration scale where inhibition reaches its midpoint. Low readings indicate greater potency, high ones weaker potency.

Where a chain is given by its changes, count along the chain named. Where two headings read alike, the source gives them in different places.

For test [1], the target named is T1, human IGF-1R extracellular domain (Homo sapiens, UniProt P08069). The test can be described thus: SPR.
Test [2] concerns the target T2, IGF-1R on tumor cells (A549, TC-71) (Homo sapiens (A549, TC-71 cells), UniProt P08069). The test can be described thus: flow cytometry on cells.
Test [3] has as its target T1, human IGF-1R extracellular domain. As to the kind of experiment: SPR. The source holds these as a separate data set. Background: SPR reads the build-up and loss of mass on a sensor chip optically.
For test [4], the target named is T2, IGF-1R on tumor cells (A549, TC-71). The test can be described thus: flow cytometry on cells. The source holds these as a separate data set. (In general: In flow cytometry, cells or beads pass a laser one at a time.)

T2 sequence (P08069 31-1367): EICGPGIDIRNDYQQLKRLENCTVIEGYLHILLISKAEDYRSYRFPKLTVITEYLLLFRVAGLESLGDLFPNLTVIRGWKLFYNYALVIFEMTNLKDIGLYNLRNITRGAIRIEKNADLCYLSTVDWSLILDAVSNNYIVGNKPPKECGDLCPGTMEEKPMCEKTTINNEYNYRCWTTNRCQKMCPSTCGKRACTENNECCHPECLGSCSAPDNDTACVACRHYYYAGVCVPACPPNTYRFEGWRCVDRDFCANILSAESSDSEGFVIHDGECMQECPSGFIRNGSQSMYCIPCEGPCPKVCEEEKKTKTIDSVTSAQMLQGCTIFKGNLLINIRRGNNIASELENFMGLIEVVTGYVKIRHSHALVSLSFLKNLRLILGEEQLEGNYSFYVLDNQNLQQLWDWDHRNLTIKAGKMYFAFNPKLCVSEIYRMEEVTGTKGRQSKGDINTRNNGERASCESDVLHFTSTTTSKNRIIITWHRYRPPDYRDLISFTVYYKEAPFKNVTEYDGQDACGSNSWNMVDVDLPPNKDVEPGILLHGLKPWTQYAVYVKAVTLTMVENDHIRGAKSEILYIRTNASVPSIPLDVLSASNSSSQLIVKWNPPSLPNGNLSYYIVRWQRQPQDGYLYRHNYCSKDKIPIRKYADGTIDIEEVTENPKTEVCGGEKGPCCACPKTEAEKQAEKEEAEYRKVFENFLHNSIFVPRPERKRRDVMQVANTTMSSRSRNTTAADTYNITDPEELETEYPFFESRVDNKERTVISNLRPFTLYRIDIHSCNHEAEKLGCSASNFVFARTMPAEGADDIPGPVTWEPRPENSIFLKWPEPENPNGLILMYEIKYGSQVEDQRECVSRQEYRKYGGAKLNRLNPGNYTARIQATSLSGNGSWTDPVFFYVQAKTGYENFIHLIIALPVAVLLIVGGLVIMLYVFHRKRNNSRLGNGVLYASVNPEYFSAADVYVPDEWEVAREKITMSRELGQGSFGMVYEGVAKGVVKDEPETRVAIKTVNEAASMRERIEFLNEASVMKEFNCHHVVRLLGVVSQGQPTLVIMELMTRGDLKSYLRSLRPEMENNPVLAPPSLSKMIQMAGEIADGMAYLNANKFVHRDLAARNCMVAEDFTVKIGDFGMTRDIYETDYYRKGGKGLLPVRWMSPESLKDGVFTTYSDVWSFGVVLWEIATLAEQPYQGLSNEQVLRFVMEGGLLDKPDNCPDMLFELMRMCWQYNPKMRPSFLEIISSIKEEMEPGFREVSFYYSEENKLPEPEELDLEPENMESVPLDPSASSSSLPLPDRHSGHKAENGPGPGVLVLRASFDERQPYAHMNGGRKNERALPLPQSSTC
T1 sequence (P08069 741-935): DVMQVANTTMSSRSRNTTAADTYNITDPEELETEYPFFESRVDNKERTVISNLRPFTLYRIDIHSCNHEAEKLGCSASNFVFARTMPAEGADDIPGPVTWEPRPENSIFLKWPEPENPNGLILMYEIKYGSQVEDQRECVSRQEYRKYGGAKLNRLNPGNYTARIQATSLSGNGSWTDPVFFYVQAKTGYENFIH

B1: F13B5 Fab fragment (Fab, V domains shown)
VH: QVELVESGGGVVQPGRSQRLSCAASGFTFSSYGMHWVRQAPGKGLEWVAIIWFDGSSTYYADSVRGRFTISRDNSKNTLYLQMNSLRAEDTAVYFCARELGRRYFDLWGRGTLVSVSS
VL: EIVLTQSPATLSLSPGERATLSCRASQSVSSYLAWYQQKPGQAPRLLIYQASKRATGIPARFSGSGSGTDFTLTISSLEPEDFAVYYCQQRSKYPPWTFGQGTKVESK
Take B1: in test [1], the equilibrium dissociation constant (Kd) was 1.47 nM, the off-rate constant (koff) amounted to 0.00025 s⁻¹ and the association rate constant (kon) turned out to be 170000 M⁻¹ s⁻¹.

B2: R1507, bivalent monospecific anti-IGF-1R antibody (antibody, V domains shown)
VH: B1 VH
VL: B1 VL with Q50D, Y94W
In test [2], B2 returned a half-maximal inhibitory concentration (IC50) of roughly 1 nM. Also, binding in test [3] was put at a Kd of 5 nM.

B3: R1507 Fab fragment (Fab, V domains shown)
VH: B1 VH
VL: B1 VL with Q50D, Y94W
For B3, the “fold reduction of binding against bivalent R1507” value in test [4] was roughly 10 fold. Further, the “fold reduction of binding against bivalent R1507” value in test [2] was roughly 34 fold. In test [1], this molecule showed a dissociation constant Kd of 18 nM, a koff of 0.00271 s⁻¹ and a kon of 153000 M⁻¹ s⁻¹.
